Biological target: RctB, wild-type full-length (residues 1–658) (Vibrio cholerae)
Test: native MS

## RctB, wild-type full-length (residues 1–658) (natural protein)
  stoichiometry N: 2

From publication PMC5397143
